The source of these data is the supplement of paper PMC12042874.

The nature of this data set: amyloid nucleation score (Sup35N fusion, yeast selection) (log enrichment); library NNK3; higher = more nucleation; inactive = no reads after selection. In outline:
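DiMSum was used to calculate nucleation scores as log enrichment of output over input reads, centred on the mode score of non-aggregating sequences. Sequences with fewer than 100 input reads were not scored. Input and output came from Illumina sequencing of plasmid inserts in psi-negative yeast expressing peptides of 20 random codons fused to Sup35N, induced 24 hours with 100 μM copper sulfate and then grown 7 days at 30°C on medium lacking adenine and uracil.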

± gives the uncertainty stated by the source.

As for NYVLRTSVVL, the amyloid nucleation score entry is “inactive”.
With EVKAMTWLVIVETIVFMS the entry was “inactive”; with PGEHCWRRFLT, “inactive”.
With YNYFFPYTNVYNIFSIYKAV the figure was 3.6 ± 0.078; with TWVVLG, “inactive”; with INVTLCCTMYD, 3.02 ± 0.053.
The result for AGYGSVSRLSMEKMEFNQ reads “inactive”; that for RYYSDNDYAMQLLLEHTALY, “inactive”; that for YLEVLVGSNQCFNMQG, “inactive”.
GVVVIPS: the amyloid nucleation score came to 0.933 ± 0.16.
With ISGFKIVSYMNKIVVSTMGL the entry was “inactive”; with LSLTYVSPHA, 0.968 ± 0.17.
In the case of FLTLSSFHRPMVE, the amyloid nucleation score entry was “inactive”.
With LVFPPAY the entry was “inactive”; with VRYPRSLVCYWYGRNHAVWA, “inactive”.
Turning to CGYKEVGVPASRRMNS, the amyloid nucleation score entry was “inactive”.
In the case of LDWCAYWVSVISRWN, the amyloid nucleation score entry was “inactive”.
The result for SFLYYRFVLVGIFLRVAGRF reads “inactive”; that for GIRVF, “inactive”; that for SGNHLSWYGTIE, 1.26 ± 0.086.
With CSVFPQVRLCPRSSANQELD the entry was “inactive”; with CGCCHVVVNSWW, 2.65 ± 0.062; with MVLPLSYKQSCFQLCKFLDN, “inactive”.
On to NPDAYKERTDLVWSVVVLLW, for which the amyloid nucleation score result is “inactive”.
The result for VSATSQYQSICLSLNTKNRF reads “inactive”; that for VGLISGVCDDGSGSMSSRLW, “inactive”.
For LSLYPFMWKYIIGAGKWLFL, the amyloid nucleation score result was “inactive”.
With GRSFCVAMVVIEGVLYRDLS the figure was 0.441 ± 0.32.
The result for SFNSVDTRLWTVPRWERMVN reads “inactive”; that for VLCNYGCGIDFAV, 0.181 ± 0.53; that for KFLKLQVYASNGSSDPPRLD, “inactive”.
With AGQNQVRDGKVIVKACSCMS the entry was “inactive”; with ILNTCYISHFPFQL, 2.33 ± 0.087.
Consider FISRSGAVGRRS, for which the amyloid nucleation score result was “inactive”.
The result for YIFVMLEHVG reads “inactive”; that for YAVCSSLKYLIVESSKLTSV, 0.038 ± 0.36.
The result for RCECVPPNQTRCYQRLASS reads “inactive”.
With LEYCVNL the entry was “inactive”; with EDLSVNNSAYVFPSLE, “inactive”; with FLVWDFRSERKRKKI, “inactive”.
As for YFCSFREVRSHGQTLR, the amyloid nucleation score entry is “inactive”.
With LFYYSRTVESYLSNVCLVIR the entry was “inactive”; with VWCRQITMMACMSVR, “inactive”.
The result for RNNSNEKSFLRQSYYHCDCF reads 2.73 ± 0.07; that for RLIWVDLALMFMFMYFLVRQ, “inactive”; that for CPTCWRYVNIRYSI, “inactive”.
On to VDKDTE, for which the amyloid nucleation score result was “inactive”.
The result for RSILLEGVLAFM reads “inactive”.
SMRSA: the amyloid nucleation score result was “inactive”.
The result for TWVCEG reads “inactive”; that for FAVTLNSWRARFRFMDRNDM, 0.682 ± 0.26.
In the case of GRQYVCYYTFLKLYWLKSMW, the amyloid nucleation score result was “inactive”.
With IAVPRWKDSDTQKVV the entry was “inactive”.
The result for GWWRSFPLQFKSPVYLNRLC reads “inactive”.
With PKFFEAPQLQLFDAYSSMDF the entry was “inactive”; with YLRDNKAWLASSSKL, “inactive”; with LEREDGVHWLMEEWVWCVDW, “inactive”.
With NRQSLGIRSYFC, the amyloid nucleation score entry was “inactive”.
The result for LRSKECIKMALKWLCKKYYW reads “inactive”; that for QSTGCLYSYLLANVGKSSGK, “inactive”; that for LLMDYYFVGLKLVPFAVPKV, 1.22 ± 0.15.
As to INSVSRGCINHFASVEGPCI, the amyloid nucleation score entry was “inactive”.
Turning to NHYATFGCSVTFAIVNWSRF, the amyloid nucleation score was 1.86 ± 0.057.
With YSQLCFF the entry was “inactive”; with NYGLLQFISIWSNILVHSNV, “inactive”; with FLVYLRR, 1.17 ± 0.11.
With MPYSFIMTVTYSLQYTQWSL the figure was -0.074 ± 0.51.
With FRSNGSIWVRGSETFTIAP the entry was “inactive”; with LVDVDVHR, -0.994 ± 2.5; with SLYFDT, “inactive”.
For VEIKYSVFLRWHVMRDDRLD, the amyloid nucleation score result was “inactive”.
LNRANNGVVYQMGVRDFQSS: the amyloid nucleation score entry is “inactive”.
With FRDVPGLLCR the entry was “inactive”.
With GGSCTDSVVIEGI the figure was 0.252 ± 0.24; with KLYIQCIYPDLVVINCDSWN, 2.39 ± 0.073; with DCFMGPLVSNCGFYECRLSV, “inactive”.
As for LVPVLNGVLSKLRSFNFHSG, the amyloid nucleation score result was “inactive”.
The result for VDWNRTFEIKSVEGDVKGAL reads “inactive”; that for FRCFYGTRSWRKECGESAFL, “inactive”; that for YQSKQRVGSS, “inactive”.
As for ISSRSGHVVMSFVCATLRNL, the amyloid nucleation score result is “inactive”.
The result for CAISLVRLTVQSEEIRVDRN reads “inactive”; that for WWTNLATPAKNQS, “inactive”; that for TRMEICCKGYKGNVPKFAVY, “inactive”.
The result for LASQELLFVRIRDSLAKCGV reads “inactive”; that for LNWMRFYVMDMVTFGVWSDQ, 0.152 ± 0.31.
The substance RKNSDLTYSNSVNLTCACRT returned an amyloid nucleation score of 0.434 ± 0.18.
With ITISIYRIGRRFFDEYFNSF the entry was “inactive”; with GLFIGYDVQ, “inactive”; with YIIRENLW, “inactive”.
With SIDDVDFSGTAKMSSSQRCT the entry was “inactive”; with KPCHASVET, “inactive”.
The result for CDTSCWLLSTPLADWTIAFN reads “inactive”; that for HEGPKKEGLLAYVKVKRLRR, “inactive”; that for DKFLFLCMG, “inactive”.
For WSFVPRGIVVSRRLSVYTRT, the amyloid nucleation score result is “inactive”.
The result for VSNMCVGMKLCFSDNHYREL reads 1.78 ± 0.067.
The result for VGRSNH reads “inactive”.
With ISFNFHSSSTGRA the figure was 1.38 ± 0.11; with FLIWGKQPWTRKLLGTIVPV, “inactive”.
Turning to SIFFIKTYESFDSSLFKSSS, the amyloid nucleation score entry is “inactive”.
MMADDVSLICGCGRQ showed an amyloid nucleation score of 1.01 ± 0.19.
With WGSMMSWQVKFVSILNPLPR the entry was “inactive”; with MWVLSV, “inactive”; with GWHQVTGFMYAIVFVTART, “inactive”.
Turning to PESFKGTQCVKFFYNCLLFK, the amyloid nucleation score was 1.2 ± 0.086.
With SEASQRLLYTMVWTAHTQVM the entry was “inactive”.
On to FMTIIKRWDVWNFCRSSGAV, for which the amyloid nucleation score entry is “inactive”.
The result for MRMNVTIRFVMFNTGLRMYG reads “inactive”; that for AKIVECM, “inactive”; that for ALVRGIVSTPDSRM, “inactive”.
MRRSMAVAMNRSVLYDEC gave an amyloid nucleation score of 0.581 ± 0.16.
In the case of KFKFVLILSEDAKAT, the amyloid nucleation score was determined as 1.23 ± 0.17.
The result for IMYPIRSSGLEPLNMCGYQA reads “inactive”.
With EKSICWSNFIAWITIWPKGR the entry was “inactive”; with SYLVRCVARNLLCFERVRGS, “inactive”.
Substance LYVVCKLSHRPHNAWEKRVP gave an amyloid nucleation score of 0.315 ± 0.29.
With SVLLISVEYVAYEFLSHSVR the figure was 2.05 ± 0.097; with WSAIVDSWCDSSRRVEIVVR, “inactive”; with WYLMCWCCLKVPVAQLM, 0.671 ± 0.19.
The result for YRILINFLSWYLCIYYASCA reads “inactive”; that for RDHWNELGRDYGWTLCKKAY, “inactive”; that for HRHNVGLCCAGDWHLVELGS, 2.06 ± 0.064.
Turning to NRPSMSRGVDTRLMSLHETL, the amyloid nucleation score result was “inactive”.
In the case of SMINKRR, the amyloid nucleation score stood at 1.16 ± 0.15.
With RVKRYSMELGIFLDLRVT the entry was “inactive”; with YLVTIILI, 1.32 ± 0.16; with TRRGHHCQFLVSGSGIAL, “inactive”.
On to NITPRQMWVRWRQCMMGTGL, for which the amyloid nucleation score entry is “inactive”.
With IEACSVSM the figure was 0.059 ± 0.98; with MLYFALNLC, “inactive”; with ANWVVVLLNRQASLGRFAYV, “inactive”.
With IALGNVRISRYRVLWAYLSS the entry was “inactive”.
